Measurements from patent US9212231B2, “TRAIL R2-specific multimeric scaffolds” (MEDIMMUNE, LLC, dated 2015).

Assays:
[1] = molecular target: Murine CD40L on the Th2 cell line D10.G4.1 (murine) (UniProt P27548)
[2] = molecular target: TRAIL R2-Fc fusion protein (human) (UniProt O14763); assay: competition ELISA: inhibition of binding of 0.75 nM biotinylated TRAIL R2-Fc to plate-coated A9(1C12)
[3] = molecular target: TRAIL R2-Fc fusion protein (human) (UniProt O14763); assay: competition ELISA on plate-coated A9(1C12)
[4] = molecular target: TRAIL R2 expressed on the cell surface (human, UniProt O14763); assay: cell-based or functional assay

TRAIL R2-Fc fusion protein (human), sequence (O14763 56-182 limits assumed): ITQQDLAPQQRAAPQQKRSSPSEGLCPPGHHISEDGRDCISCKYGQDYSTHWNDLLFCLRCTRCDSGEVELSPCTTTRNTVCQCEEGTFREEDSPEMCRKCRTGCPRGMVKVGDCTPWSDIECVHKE

IC50, inhibition of Murine CD40L-induced CD86 expression on CD19 gated B cells [1] [nM] | IC50 [2] [nM] | fold higher affinity relative to the monomeric A1 protein [3] [fold] | fold lower IC50 than the monomer A1 [3] [fold] | Maximum Inhibition %, H2122 cells [4] [%] | Molecule | EC50, killing of H2122 cells [4] [nM]
100000 | – | – | – | – | MR1 antibody | –
– | 0.5 | 30 to 40 | > 30 | – | A2(1E11) (designed binder) SGGGGSAIEVKDVTDTTALITWAKPWVDPPPLWGCELAYGIKDVPGDRTTIDLQQKHTAYSIGNLKPDTEYEVSLICFDPYGAKSNPAKETFTTGGGGSGGGGSGGGGSAIEVKDVTDTTALITWAKPWVDPPPLWGCELAYGIKDVPGDRTTIDLQQKHTAYSIGNLKPDTEYEVSLICFDPYGAKSNPAKETFTTGGGGSGGGGSGTLGHHHHHHHH | –
– | 0.4 | 30 to 40 | > 30 | 91 | A3(1E11) (designed binder) SGGGGSAIEVKDVTDTTALITWAKPWVDPPPLWGCELAYGIKDVPGDRTTIDLQQKHTAYSIGNLKPDTEYEVSLICFDPYGAKSNPAKETFTTGGGGSGGGGSGGGGSAIEVKDVTDTTALITWAKPWVDPPPLWGCELAYGIKDVPGDRTTIDLQQKHTAYSIGNLKPDTEYEVSLICFDPYGAKSNPAKETFTTGGGGSGGGGSGGGGSAIEVKDVTDTTALITWAKPWVDPPPLWGCELAYGIKDVPGDRTTIDLQQKHTAYSIGNLKPDTEYEVSLICFDPYGAKSNPAKETFTTGGGGSGGGGSGGGGSAIEVKDVTDTTALITWAKPWVDPPPLWGCELAYGIKDVPGDRTTIDLQQKHTAYSIGNLKPDTEYEVSLICFDPYGAKSNPAKETFTTGGGGSGGGGSGTLGHHHHHHHH | 0.013
